This note sets out measurements from patent US20220380738.

The subject of data set [1] is CbAgo (Clostridium butyricum). The data set is described as follows: cleavage_in_vitro. The settings on record: 5'-phosphate.
Data set [2] addresses T1, RecC protein (wild type, N-terminal 6xHis tag), P07648.
T1 chain: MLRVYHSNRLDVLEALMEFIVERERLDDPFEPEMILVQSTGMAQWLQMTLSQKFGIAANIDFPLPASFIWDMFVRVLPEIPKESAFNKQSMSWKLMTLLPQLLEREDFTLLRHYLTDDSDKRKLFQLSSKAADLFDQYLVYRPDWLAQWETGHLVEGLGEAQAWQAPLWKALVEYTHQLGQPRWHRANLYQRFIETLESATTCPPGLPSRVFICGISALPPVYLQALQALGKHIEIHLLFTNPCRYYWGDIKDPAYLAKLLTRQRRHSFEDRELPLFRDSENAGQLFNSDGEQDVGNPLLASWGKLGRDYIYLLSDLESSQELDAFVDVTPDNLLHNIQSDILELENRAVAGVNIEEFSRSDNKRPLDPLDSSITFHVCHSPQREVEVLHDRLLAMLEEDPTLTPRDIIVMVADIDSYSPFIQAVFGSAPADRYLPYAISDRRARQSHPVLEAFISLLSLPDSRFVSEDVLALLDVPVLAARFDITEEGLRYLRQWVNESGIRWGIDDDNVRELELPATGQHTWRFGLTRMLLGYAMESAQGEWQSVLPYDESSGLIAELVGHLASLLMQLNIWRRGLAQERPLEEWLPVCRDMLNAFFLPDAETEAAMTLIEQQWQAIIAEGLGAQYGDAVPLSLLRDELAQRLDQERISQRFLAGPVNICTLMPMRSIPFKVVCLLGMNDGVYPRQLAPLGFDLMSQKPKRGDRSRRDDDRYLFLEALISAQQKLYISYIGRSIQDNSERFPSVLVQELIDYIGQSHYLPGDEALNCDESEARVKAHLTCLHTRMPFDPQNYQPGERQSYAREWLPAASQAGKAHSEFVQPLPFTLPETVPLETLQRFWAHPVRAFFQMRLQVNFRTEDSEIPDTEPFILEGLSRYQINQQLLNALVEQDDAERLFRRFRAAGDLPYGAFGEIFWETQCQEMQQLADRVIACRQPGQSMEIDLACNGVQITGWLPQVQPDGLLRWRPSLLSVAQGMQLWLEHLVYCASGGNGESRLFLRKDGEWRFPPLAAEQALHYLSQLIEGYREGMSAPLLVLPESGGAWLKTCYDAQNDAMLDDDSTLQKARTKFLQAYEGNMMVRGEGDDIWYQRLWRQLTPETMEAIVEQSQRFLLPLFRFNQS

With “AGTGCTGAGGTTGACTTAGTT / GTTTGCTGATGAACTAAGTCAACCTCAGCATCAACCTTGCGAGTCATTTCTTT [T2-A1 ; ss-phiX174]”, the activity in data set [1] (16 min, 37 C) amounted to 35 % cleaved.
In data set [1] (16 min, 37 C), “CGCAAGGTTAGTGCTGAGGTT / GTTTGCTGATGAACTAAGTCAACCTCAGCATCAACCTTGCGAGTCATTTCTTT [T1-C1 ; ss-phiX174]” displayed an activity of 50 % cleaved.
“GTGCTGAGGTTGACTTAGTTC / GTTTGCTGATGAACTAAGTCAACCTCAGCATCAACCTTGCGAGTCATTTCTTT [T2-G1 ; ss-phiX174]”: in data set [1] (4 min, 37 C), the activity is 80 % cleaved.
Regarding “TCGCAAGGTTAGTGCTGAGGT / GTTTGCTGATGAACTAAGTCAACCTCAGCATCAACCTTGCGAGTCATTTCTTT [T1 ; ss-phiX174]”, the activity in data set [1] (4 min, 37 C) came to 74 % cleaved.
“TGACTGCGATCCTGCAT / GCTAGATAGATTGACAGATTACTCAAGCAGGCATGCAGGATCGCAGTCAGATTTATGTGTCATATAGTACGTGATTCAAG / CTTGAATCACGTACTATATGACACATAAATCTGACTGCGATCCTGCATGCCTGCTTGAGTAATCTGTCAATCTATCTAGC [B12 ; 80 bp blunt substrate]” returned an activity in data set [1] (with RecdeltaB-C helicase, 15 min, 2-fold more with added CbuRecQ) of 25 % cleaved.

B1: RecB^exo- (full-length nuclease deficient RecB DNA helicase variant, E1020A/D1080A/K1082A, N-terminal 6xHis tag) (protein)
chain: MSDVAETLDPLRLPLQGERLIEASAGTGKTFTIAALYLRLLLGLGGSAAFPRPLTVEELLVVTFTEAATAELRGRIRSNIHELRIACLRETTDNPLYERLLEEIDDKAQAAQWLLLAERQMDEAAVFTIHGFCQRMLNLNAFESGMLFEQQLIEDESLLRYQACADFWRRHCYPLPREIAQVVFETWKGPQALLRDINRYLQGEAPVIKAPPPDDETLASRHAQIVARIDTVKQQWRDAVGELDALIESSGIDRRKFNRSNQAKWIDKISAWAEEETNSYQLPESLEKFSQRFLEDRTKAGGETPRHPLFEAIDQLLAEPLSIRDLVITRALAEIRETVAREKRRRGELGFDDMLSRLDSALRSESGEVLAAAIRTRFPVAMIDEFQDTDPQQYRIFRRIWHHQPETALLLIGDPKQAIYAFRGADIFTYMKARSEVHAHYTLDTNWRSAPGMVNSVNKLFSQTDDAFMFREIPFIPVKSAGKNQALRFVFKGETQPAMKMWLMEGESCGVGDYQSTMAQVCAAQIRDWLQAGQRGEALLMNGDDARPVRASDISVLVRSRQEAAQVRDALTLLEIPSVYLSNRDSVFETLEAQEMLWLLQAVMTPERENTLRSALATSMMGLNALDIETLNNDEHAWDVVVEEFDGYRQIWRKRGVMPMLRALMSARNIAENLLATAGGERRLTDILHISELLQEAGTQLESEHALVRWLSQHILEPDSNASSQQMRLESDKHLVQIVTIHKSKGLEYPLVWLPFITNFRVQEQAFYHDRHSFEAVLDLNAAPESVDLAEAERLAEDLRLLYVALTRSVWHCSLGVAPLVRRRGDKKGDTDVHQSALGRLLQKGEPQDAAGLRTCIEALCDDDIAWQTAQTGDNQPWQVNDVSTAELNAKTLQRLPGDNWRVTSYSGLQQRGHGIAQDLMPRLDVDAAGVASVVEEPTLTPHQFPRGASPGTFLHSLFEDLDFTQPVDPNWVREKLELGGFESQWEPVLTEWITAVLQAPLNETGVSLSQLSARNKQVAMEFYLPISEPLIASQLDTLIRQFDPLSAGCPPLEFMQVRGMLKGFIDLVFRHEGRYYLLAYASNWLGEDSSAYTQQAMAAAMQAHRYDLQYQLYTLALHRYLRHRIADYDYEHHFGGVIYLFLRGVDKEHPQQGIYTTRPNAGLIALMDEMFAGMTLEEA
In the case of B1, the “DNA unwinding activity (DpnI-based helicase assay, capillary electrophoresis)” value in data set [2] is on record as “RecB^exo- alone is a weak DNA helicase, but its unwinding activity significantly increases after interaction with RecC protein”.
